Paper PMC4239318, “Quantitative investigation of the affinity of human respiratory syncytial virus phosphoprotein C-terminus binding to nucleocapsid protein” (Virology Journal, 2014)
Values joined by “and” are separate entries in the source; they are usually repeats but may differ in a detail not shown here. Equal values may be shown once. Square brackets hold non-standard residues; d marks the D form. Ends that are not written are not given here. Peptide text beside a SMILES is read from it. * marks the point of attachment. BODIPY(FL) = CC1=CC(C)=[N+]2C1=Cc1ccc(CCC(=O)*)n1[B-]2(F)F; pS = N[C@@H](COP(=O)(O)O)C(=O)O

Key:
RSV-N(13-391) [1] = target: T1, RSV-N(13-391) (Human respiratory syncytial virus A, UniProt P03418); experiment: biochemical; conditions: from ΔG = RT ln Kd and IC50 = 2 × Kd; 10 mM Tris-HCl pH 7.5 at 21°C; approximate
Method: (§1) Samples of 10 μl containing peptides and proteins as indicated were prepared in buffer composed of 10 mM Tris-HCl (pH 7.5) +0.01% Brij-35 detergent (Pierce Surfact-Amps-35, Thermo Fisher Scientific, Rockford, IL) in low-volume 384-well black polystyrene assay plates (Thermo Fisher Scientific, Hudson, NH). After a 5 minute incubation, fluorescence anisotropy was measured with a Pherastar plate reader (BMG Labtech, Cary, NC) equipped with a filter module having a 485 nm excitation filter and 520 nm emission filters with polarizers. The focal height was 10.8 mm. Each measurement used 50 flashes. The parallel and perpendicular detector gains were set to 392 and 366 in order to produce an anisotropy of about 0.03 in the absence of binding.
The averages of triplicate anisotropy measurements made at each competitor concentration were used to calculate % inhibition using the equation %inhibition=1001–r–rmin/rmax–rmin where r is the anisotropy at the competitor concentration, rmin is the anisotropy with no RSV-N(13-391), and rmax is the anisotropy with no competititor.
(§2) All fluorescence anisotropy measurements were performed at ambient temperature, approximately 21°C.
For the BP5 competition assay, the P protein storage buffer was replaced by repeated concentration using centrifugal ultrafiltration with a Millipore Ultrafree 0.5 unit with Biomax-10 membrane (EMD Millipore, Billerica, MA) and dilution with 10 mM Tris-HCl (pH 7.5). The protein concentration was determined by the method of Bradford using bovine serum albumin as the standard. Serial dilutions of P were prepared in 10 mM Tris-HCl (pH 7.5) +0.01% Brij-35.

15N-labeled N(31-252) = target: T2, 15N-labeled N(31-252) (Human respiratory syncytial virus A, UniProt P03418); experiment: 2-D NMR [15N,1H] TROSY titration, chemical shift perturbation; format: binding, human respiratory syncytial virus (strain A2); conditions: 0.15 mM 15N N(31-252); 25 mM HEPES pH 7.5, 100 mM NaCl, 1 mM DTT, 1 mM EDTA; 298 K; global best fit ± standard error of fit; read-out: Kd measured by NMR
T2 construct: His6 (N); TEV protease cleavage recognition site (N); made in house; host or cells: E. coli BL21(DE3)pLysS, M9 minimal medium with [15N]; NH4Cl
Method: NMR spectra were acquired at 298 K with a 600 MHz NMR instrument (Bruker, Billerica MA) equipped with an AVANCE III console and a triple-resonance cryogenic probe. Samples were at pH 7.5 in a 25 mM HEPES buffer containing 100 mM NaCl, 1 mM dithiothreitol, and 1 mM EDTA. The concentration of ^15N labeled RSV N(31-252) was 0.15 mM. Two-dimensional [^15N, ^1H] transverse relaxation optimized spectroscopy (TROSY) experiments were recorded with increasing ligand concentration. Evolution times were approximately 53 ms in the ^1H dimension and 29 ms in the ^15N dimension. The total acquisition time was 28 min per experiment.
To estimate the dissociation constant (Kd) from NMR experiments, ^15N-RSV N(31-252) was titrated with a range of ligand concentrations. The weighted average of chemical shift changes (Δδ(N, H)obs) is calculated using the following equation: ΔδN,Hobs=ΔδHN^2+ΔδΝ/5^2 where ΔδHN and ΔδN are the chemical shift changes of amide protons and nitrogens, respectively. Then Δδ(N, H)obs data were fitted by non-linear regression globally against the total concentration of the subtrate (LT) with the equation: ΔδN,Hobs=ΔδN,HmaxKd+LT+ET‐Kd+LT+ET^2−4LTET/2ET where Δδ(N, H)max is the maximum chemical shift difference, ET is the total concentration of N(31-352) in the solution, and LT is the total concentration of ligand.

RSV-N(13-391) [2] = target: T1, RSV-N(13-391)
Method: as §1
The averages of triplicate fluorescence anisotropy measurements made at each RSV-N(13-391) concentration were fit to the equation y=yo+aN/Kd+N where y is the anisotropy, yo is the anisotropy of peptide alone, [N] is the RSV-N(13-391) concentration, and yo + a is the anisotropy of fully bound peptide.
as §2

[3] = target: T3, RSV N(13-391), N-terminally truncated nucleocapsid protein (human respiratory syncytial virus, …, UniProt P03418 13-391); experiment: fluorescence polarisation; fluorescence anisotropy, competition with 25 nM BP5 and 75 nM N(13-391), competitor varied; 10 mM Tris-HCl pH 7.5, 0.01% Brij-35; about 21 °C; conditions: both partners purified
T3 construct: source: E. coli BL21(DE3)pLysS, purified (Ni2+ chelating, Q-Sepharose, Superdex 200)
T3 sequence: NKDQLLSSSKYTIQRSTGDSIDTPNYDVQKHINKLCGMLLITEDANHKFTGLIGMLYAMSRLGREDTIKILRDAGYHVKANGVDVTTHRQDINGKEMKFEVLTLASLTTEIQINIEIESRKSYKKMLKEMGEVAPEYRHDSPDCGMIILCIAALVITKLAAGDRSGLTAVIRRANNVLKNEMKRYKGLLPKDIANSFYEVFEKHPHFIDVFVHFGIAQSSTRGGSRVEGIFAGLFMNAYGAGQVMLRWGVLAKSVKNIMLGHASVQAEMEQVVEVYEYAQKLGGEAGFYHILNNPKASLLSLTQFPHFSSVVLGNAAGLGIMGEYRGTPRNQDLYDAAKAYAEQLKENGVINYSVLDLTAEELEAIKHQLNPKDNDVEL

[4] = target: T3, RSV N(13-391), N-terminally truncated …; experiment: SPR; Biacore T200; His10-P immobilised on NTA chip (nickel capture, amine coupling); 100 nM N(13-391) mixed with peptide series; 20 mM HEPES-NaOH pH 7.5, 100 mM NaCl, 1 mM EDTA, 1 mM TCEP, 0.005% Tween 20, 1% DMSO; conditions: both partners purified
[5] = target: T3, RSV N(13-391), N-terminally truncated …; experiment: fluorescence polarisation; fluorescence anisotropy, direct binding; 100 nM BP1 or 25 nM BP5, N(13-391) varied; 10 mM Tris-HCl pH 7.5, 0.01% Brij-35; about 21 °C; conditions: both partners purified
[6] = target: T3, RSV N(13-391), N-terminally truncated …; experiment: fluorescence polarisation; fluorescence anisotropy, competition with 25 nM BP5 and 75 nM N(13-391), competitor varied; 10 mM Tris-HCl pH 7.5, 0.01% Brij-35; about 21 °C; conditions: both partners purified; remark: listed apart in the source
[7] = target: T3, RSV N(13-391), N-terminally truncated …; experiment: fluorescence polarisation; conditions: both partners purified
[8] = target: T4, RSV N(31-252), nucleocapsid construct consisting of residues 31-252 (human respiratory syncytial virus, …, UniProt P03418 31-252); experiment: NMR titration; 2-D [15N,1H] TROSY of 0.15 mM 15N-labeled N(31-252) with increasing ligand; 25 mM HEPES pH 7.5, 100 mM NaCl, 1 mM DTT, 1 mM EDTA; 298 K; conditions: both partners purified
T4 construct: source: E. coli BL21(DE3)pLysS, purified (Ni2+ chelating, Superdex 200)
T4 sequence: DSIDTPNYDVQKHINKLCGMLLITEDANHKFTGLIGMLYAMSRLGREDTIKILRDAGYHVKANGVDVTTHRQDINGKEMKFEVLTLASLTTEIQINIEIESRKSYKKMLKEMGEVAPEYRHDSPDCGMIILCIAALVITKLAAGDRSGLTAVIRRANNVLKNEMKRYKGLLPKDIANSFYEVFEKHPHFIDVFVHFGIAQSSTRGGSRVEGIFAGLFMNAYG

## CC(C)C[C@H](NC(=O)[C@H](COP(=O)(O)O)NC(=O)[C@H](CC(C)C)NC(=O)[C@H](CC(=O)O)NC(=O)[C@H](CC(N)=O)NC(=O)[C@H](CC(=O)O)NC(=O)[C@H](COP(=O)(O)O)NC(=O)[C@@H](N)CC(=O)O)C(=O)N[C@@H](CCC(=O)O)C(=O)N[C@@H](CC(=O)O)C(=O)N[C@@H](C)C(=O)O [D(pS)DNDL(pS)LEDA]
RSV-N(13-391) [1]
  ΔG of binding to RNA-free N(13-391): -25.1 kJ/mol

## N[C@@H](CC(=O)O)C(=O)N[C@@H](Cc1ccccc1)C(=O)O [DF, Asp-Phe, reference compound] (H-Asp-Phe-OH)
15N-labeled N(31-252)
  Kd: 2600 µM

## Cc1cc(C)n2c1C=C1C=CC(CCC(=O)N[C@@H](CC(=O)O)C(=O)N[C@@H](COP(=O)(O)O)C(=O)N[C@@H](CC(=O)O)C(=O)N[C@@H](CC(N)=O)C(=O)N[C@@H](CC(=O)O)C(=O)N[C@@H](CC(C)C)C(=O)N[C@@H](COP(=O)(O)O)C(=O)N[C@@H](CC(C)C)C(=O)N[C@@H](CCC(=O)O)C(=O)N[C@@H](CC(=O)O)C(=O)N[C@@H](Cc3ccccc3)C(=O)O)=[N+]1[B-]2(F)F [BP5] ({BODIPY(FL)}-D[pS]DNDL[pS]LEDF-OH)
RSV-N(13-391) [2]; Kds measured with N(13-391) 1.95 to 2000 nM in triplicate, Figure 1B
  Effect of KCl concentration (ionic strength) on affinity for N(13-391): diminished as the ionic strength increased
RSV-N(13-391) [2]; ratio of Kds for N(13-391)
  affinity relative to unphosphorylated peptide BP1: about 10 times

## DSDNDLSLEDF
RSV-N(13-391) [1]
  ΔG of binding to RNA-free N(13-391): -28.9 kJ/mol

## CC(C)C[C@H](NC(=O)[C@H](COP(=O)(O)O)NC(=O)[C@H](CC(C)C)NC(=O)[C@H](CC(=O)O)NC(=O)[C@H](CC(N)=O)NC(=O)[C@H](CC(=O)O)NC(=O)[C@H](COP(=O)(O)O)NC(=O)[C@@H](N)CC(=O)O)C(=O)N[C@@H](CCC(=O)O)C(=O)N[C@@H](CC(=O)O)C(=O)N[C@@H](Cc1ccccc1)C(=O)O [D(pS)DNDL(pS)LEDF] (H-D[pS]DNDL[pS]LEDF-OH)
RSV-N(13-391) [1]
  ΔG of binding to RNA-free N(13-391): -36.4 kJ/mol

B1: DSDNDL(pS)LEDF (P C-terminal peptide phosphorylated on the C-terminal serine) (peptide)
peptide: DSDNDL[pS]LEDF
notes: residues 231-241 of RSV phosphoprotein P; N- and C-termini uncapped; source: synthetic peptide (Biopeptide Co.)
[3]
  IC50: 1.51 µM
[4]
  IC50: 31 µM

B2: BP5, BODIPY-FL labeled peptide 5 (D(pS)DNDL(pS)LEDF) (peptide)
peptide: {BODIPY(FL)}-D[pS]DNDL[pS]LEDF
notes: C-terminal 11 residues (231-241) of RSV phosphoprotein P; C-terminus uncapped; source: synthetic peptide (Biopeptide Co.), labelled with BODIPY FL SSE, purified on Sephadex LH-20
[5]
  Kd: 0.078 µM

B3: peptide 1, DSDNDLSLEDF (unphosphorylated P C-terminal peptide) (peptide)
peptide: DSDNDLSLEDF
notes: as for B1
[6]
  Kd: ~7.6 µM
[3]
  IC50: 15.3 µM
[4]
  IC50: 230 µM

B4: D(pS)DNDLSLEDF (P C-terminal peptide phosphorylated on the N-terminal serine) (peptide)
peptide: D[pS]DNDLSLEDF
notes: as for B1
[3]
  IC50: 2.17 µM
[4]
  IC50: 44 µM

B5: BP1, BODIPY-FL labeled peptide 1 (DSDNDLSLEDF) (peptide)
peptide: {BODIPY(FL)}-DSDNDLSLEDF
notes: as for B2
[5]
  Kd: 0.76 µM

B6: DSDNDLSLEDA (unphosphorylated P C-terminal peptide, C-terminal Phe changed to Ala) (peptide)
peptide: DSDNDLSLEDA
notes: also called Ala-modified peptide; source: synthetic peptide (Biopeptide Co.)
[7]
  IC50: > 200 µM

B7: D(pS)DNDL(pS)LEDA (doubly phosphorylated P C-terminal peptide, C-terminal Phe changed to Ala) (peptide)
peptide: D[pS]DNDL[pS]LEDA
notes: source: synthetic peptide (Biopeptide Co.)
[7]
  IC50: 69 µM

B8: peptide 5, D(pS)DNDL(pS)LEDF (doubly phosphorylated P C-terminal peptide) (peptide)
peptide: D[pS]DNDL[pS]LEDF
notes: as for B1
[6]
  Kd: ~0.34 µM
[3]
  IC50: 0.61 µM and 0.74 µM
[8]
  Kd: 74 µM
[4]
  IC50: 13.6 µM
